Several values for one entry are separate records, joined by “and”; a condition that tells them apart may be missing. Equal entries are not always repeated. Values belong to the substance of their own block, whether it stands above or below them.
Assays:
Test in all cases: FRET or BRET
[1] = biological target: AKAP79-CFP I338P variant (PPAIIIT), full-length (human) (UniProt P24588)
[2] = biological target: AKAP79-CFP, wildtype, full-length (human) (UniProt P24588)
[3] = biological target: ATTO425-AKAP79(333–408) I338P variant (PPAIIIT) (human) (UniProt P24588)
[4] = biological target: ATTO425-AKAP79(333–408), wildtype (PIAIIIT) (human) (UniProt P24588)
Chain of ATTO425-AKAP79(333–408), wildtype (PIAIIIT) (human) (P24588 333-408): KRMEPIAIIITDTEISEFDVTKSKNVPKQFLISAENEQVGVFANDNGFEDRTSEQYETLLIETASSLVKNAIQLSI

Chain of AKAP79-CFP I338P variant (PPAIIIT), full-length (human) (P24588 whole entry I338P): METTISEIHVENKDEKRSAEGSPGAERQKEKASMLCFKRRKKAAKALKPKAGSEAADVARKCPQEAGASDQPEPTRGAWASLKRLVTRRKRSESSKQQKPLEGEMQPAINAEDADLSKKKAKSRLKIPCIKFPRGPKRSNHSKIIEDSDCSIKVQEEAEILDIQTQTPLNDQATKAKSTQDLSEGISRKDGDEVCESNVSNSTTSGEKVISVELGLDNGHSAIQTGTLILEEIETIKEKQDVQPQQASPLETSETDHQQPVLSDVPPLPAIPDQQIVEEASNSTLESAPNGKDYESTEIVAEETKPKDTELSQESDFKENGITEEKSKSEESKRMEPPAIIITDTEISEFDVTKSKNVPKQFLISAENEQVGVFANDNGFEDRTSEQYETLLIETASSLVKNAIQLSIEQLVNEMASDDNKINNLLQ
Chain of AKAP79-CFP, wildtype, full-length (human) (P24588 whole entry): as the sequence (P24588 whole entry I338P) above, with P338I counted along it
Chain of ATTO425-AKAP79(333–408) I338P variant (PPAIIIT) (human) (P24588 333-408 I338P): as the sequence (P24588 333-408) above, with I6P counted along it

corrected YFP/CFP fluorescence intensity ratio (treated as 1:1 complex) [1]: 8.1 | corrected YFP/CFP fluorescence intensity ratio (treated as 2:1 complex) [1]: 7.1
Substance: CNAα-YFP (from UniProt Q08209 1-521) (enzyme)

corrected YFP/CFP fluorescence intensity ratio (treated as 2:1 complex) [2]: 6.1 | stoichiometry N [2]: 1
Substance: CNAα-YFP (from UniProt Q08209 1-521) (enzyme; other documents disagree on this pair)

half-time of dissociation [3]: 163 ms | Kd [4]: 400 nM and 300 nM | koff [4]: 9.96 s⁻¹
Substance: rhodamine-CN (calcineurin labelled with tetramethylrhodamine acceptor) (from UniProt Q08209;P63098) (complex)

From publication PMC3294036
